The values below come from patent US20200283537A1 (UNIVERSITY OF VIRGINIA PATENT FOUNDATION, published 2020).

Test [1] concerns the target Human death receptor 5 (DR5/TRAIL-R2) on cancer cells (human, UniProt O14763 56-440). Kind of test: cell-based or functional assay.
Test [2] addresses Human folate receptor alpha-1 (FOLR1) on ovarian cancer cells (human, UniProt P15328 25-234). Kind of test: cell-based or functional assay.
Test [3] concerns the target T1, Recombinant DR5 (rDR5), extracellular domain of DR5/TRAIL-R2 fused to IgG4-Fc.
T1 construct: It was biotinylated for BLI; also called rDR5-IgG4; DR5-Fc
Kind of test: ELISA on coated rDR5-IgG4-Fc (FIG. 12D). A general note: An ELISA detects its analyte on a solid surface through an enzyme-linked reagent.
Protocol: (D) IgG4-Fc tagged rDR5 receptor was coated in 96 well plates overnight.
Binding specificity and affinity of various described IgG1 subclasses were determined by ELISA using the recombinant extracellular domain of FOLR1 and/or DR5/TRAIL-R2. For coating 96-well ELISA plates (Olympus), the protein solutions (2 μg/ml) were prepared in coating buffer (100 mM Sodium Bicarbonate pH 9.2) and 100 μl was distributed in each well. The plates were then incubated overnight at 4° C. Next day, the unbound areas were blocked by cell culture media containing 10% FBS, 1% BSA and 0.5% sodium azide for 2 hr at room temperature. […] After washing with PBS solution containing 0.1% Tween20, the plates were incubated for 1 hr with horseradish peroxidase (HRP) conjugated anti-human IgG1 (Thermo Scientific, A10648). Detection was performed using a two-component peroxidase substrate kit (BD biosciences) and the reaction was stopped with the addition of 2 N Sulfuric acid. Absorbance at 450 nm was immediately recorded using a Synergy Spectrophotometer (BioTech), and background absorbance from negative control samples was subtracted. The antibody affinities (Kd) were calculated by non-linear regression analysis using GraphPad Prism software.

Human folate receptor alpha-1 (FOLR1) on ovarian cancer cells, sequence (P15328 25-234): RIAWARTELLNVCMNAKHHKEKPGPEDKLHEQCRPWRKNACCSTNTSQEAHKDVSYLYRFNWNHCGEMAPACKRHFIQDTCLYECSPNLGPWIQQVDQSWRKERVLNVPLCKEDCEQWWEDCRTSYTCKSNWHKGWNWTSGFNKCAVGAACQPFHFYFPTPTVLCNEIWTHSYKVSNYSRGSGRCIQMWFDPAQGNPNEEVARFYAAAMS

B1: BaCa-1 (Bispecific-Anchored Cytotoxicity-Activator-1; farletuzumab IgG1 with a lexatumumab scFv at the C-terminus of the heavy chain) (bispecific antibody)
heavy: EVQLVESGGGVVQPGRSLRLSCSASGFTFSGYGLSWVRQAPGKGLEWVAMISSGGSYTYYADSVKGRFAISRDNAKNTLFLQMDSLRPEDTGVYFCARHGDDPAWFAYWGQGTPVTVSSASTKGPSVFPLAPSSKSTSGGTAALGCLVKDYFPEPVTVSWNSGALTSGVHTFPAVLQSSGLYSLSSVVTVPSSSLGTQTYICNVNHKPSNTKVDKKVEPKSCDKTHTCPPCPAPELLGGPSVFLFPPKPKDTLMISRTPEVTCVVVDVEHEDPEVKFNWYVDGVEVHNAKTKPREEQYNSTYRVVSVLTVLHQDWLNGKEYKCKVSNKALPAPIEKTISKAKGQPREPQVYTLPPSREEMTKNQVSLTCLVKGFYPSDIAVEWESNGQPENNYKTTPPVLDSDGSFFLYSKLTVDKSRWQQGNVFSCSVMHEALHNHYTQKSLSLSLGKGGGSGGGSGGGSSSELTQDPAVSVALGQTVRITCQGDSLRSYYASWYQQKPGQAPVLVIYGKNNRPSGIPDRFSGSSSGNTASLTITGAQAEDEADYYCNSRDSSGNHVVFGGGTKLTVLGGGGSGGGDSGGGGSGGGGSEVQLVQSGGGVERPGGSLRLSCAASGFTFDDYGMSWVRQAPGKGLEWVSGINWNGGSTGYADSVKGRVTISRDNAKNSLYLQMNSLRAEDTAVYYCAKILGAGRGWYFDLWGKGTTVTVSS
light: DIQLTQSPSSLSASVGDRVTITCSVSSSISSNNLHWYQQKPGKAPKPWIYGTSNLASGVPSRFSGSGSGTDYTFTISSLQPEDIATYYCQQWSSYPYMYTFGQGTKVEIKRTVAAPSVFIFPPSDEQLKSGTASVVCLLNNFYPREAKVQWKVDNALQSGNSQESVTEQDSKDSTYSLSSTLTLSKADYEKHKVYACEVTHQGLSSPVTKSFNRGEC
In the case of B1, the “IC50 of cell viability, Colo-205 cells” value in test [1] worked out at 3.07 nM. For the same molecule, the “cell killing, OVCAR-4 (high FOLR1) over Colo-205 (low FOLR1) cells” value in test [2] was roughly 70 fold.

B2: BaCa antibody labelled with IRDye 800CW (bispecific antibody, human IgG1, kappa)
heavy: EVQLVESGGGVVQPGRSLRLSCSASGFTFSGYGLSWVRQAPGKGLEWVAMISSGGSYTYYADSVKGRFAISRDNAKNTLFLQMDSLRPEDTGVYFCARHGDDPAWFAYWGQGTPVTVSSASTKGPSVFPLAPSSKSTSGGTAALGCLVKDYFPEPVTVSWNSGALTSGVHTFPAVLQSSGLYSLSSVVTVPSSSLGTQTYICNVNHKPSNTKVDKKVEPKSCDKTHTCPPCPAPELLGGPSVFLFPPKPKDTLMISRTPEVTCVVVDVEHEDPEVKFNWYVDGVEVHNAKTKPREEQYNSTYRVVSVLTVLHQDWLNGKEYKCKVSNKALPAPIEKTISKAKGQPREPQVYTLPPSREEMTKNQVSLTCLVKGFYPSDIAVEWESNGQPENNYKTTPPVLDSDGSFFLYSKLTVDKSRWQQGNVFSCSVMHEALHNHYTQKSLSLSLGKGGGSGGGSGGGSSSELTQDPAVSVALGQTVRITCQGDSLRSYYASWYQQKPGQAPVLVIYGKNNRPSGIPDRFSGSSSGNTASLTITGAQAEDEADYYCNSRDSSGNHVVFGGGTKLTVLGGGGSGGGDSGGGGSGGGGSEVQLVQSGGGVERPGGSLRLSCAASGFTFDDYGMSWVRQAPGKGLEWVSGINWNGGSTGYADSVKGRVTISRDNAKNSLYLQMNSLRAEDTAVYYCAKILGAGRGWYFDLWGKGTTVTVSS
light: B1 light
modifications: IRDye 800CW NHS Ester label; sites not stated; IRDye 800CW NHS Ester label (0.04 mg dye per 1 mg of antibodies); sites not stated
notes: Lead BaCa (BaCa-1/HuBaCa), dye-conjugated; also called BaCa-IR800; IR800 labeled BaCa
With B2, the binding result in test [3] is recorded as “binds”.
